Patent US10378034B2, “Use of a N-acetylneuraminate lyase derived from the bacterium Aliivibrio salmonicida in the production of neuraminic acid and derivatives thereof” (Universitetet i Tromsø-Norges Arktiske Universitet, priority 2014, dated 2019)

Assays:
[1] = TBA assay, condensation activity: pH and temperature profiles; format: biochemical
Method: Both the condensation and cleavage activities of NAL were assessed using the modified thiobarbituric acid (TBA) assay developed by Aminoff (1961) and Warren (1959). The condensation activity was determined by incubating 50 μl of a reaction mixture containing 15 mM sodium pyruvate, 15 mM ManNAc, 124 mM HEPES pH 8.0 and different concentrations of enzyme depending on assay type at selected temperatures for the required amount of time. The reaction was terminated by adding 137 μl 2.5 mg/ml sodium periodate in 57 mM H2SO4, followed by incubation at 37° C. for 15 min with shaking at 1350 rpm. Sodium arsenite (50 μl, 25 mg/ml sodium arsenite in 0.5 M HCl) was added resulting in brown color. The tubes were shaken manually until the brown color disappeared. 2-thiobarbituric acid solution (100 μl, 71 mg/ml adjusted to pH 9.0) was subsequently added, and the tubes were incubated in boiling water for 7.5 min. […] The organic phase containing the red chromophore (200 μl) was used for measurement of absorbance at 549 nm in a spectrophotometer (SpectraMax M2e, Molecular Devices). […]
pH profiles were determined by assaying the enzyme in triplicate for both condensation and cleavage directions at pH values ranging from 5.5 to 11.0 with 0.5 pH unit intervals. […] Temperature profiles were determined for both directions by assaying the enzyme in triplicate from 4 to 80° C. in HEPES buffer pH 8.0. […]

[2] = Thermofluor thermal denaturation; format: physicochemical
Method: Long term stability of AsNAL at different pH was studied by incubating the enzyme at pH values from 6.0 to 11.0 at room temperature for a month. Buffers used were Sodium phosphate (pH 6.0-7.0), HEPES (pH 7.0-8.0), Tris-HCl (pH 8.0-9.0) and glycine (pH 9.0-11.0). The enzyme activity in the condensation direction was measured using the standard reaction mixture incubated at room temperature for 1 h, with subsequent TBA assay. The stability of AsNAL at different pH was also studied using the thermofluor method described by Ericsson et al. (2006) where increased or decreased stability is related to the increase or decrease in the melting temperature of the protein. For the thermofluor assay, the protein was dialyzed overnight at 4° C. against a buffer containing 10 mM HEPES pH 7.5, 150 mM NaCl and 2 mM β-ME in Pierce Slide-A-Lyzer dialysis cassettes with a 3.5 kDa cutoff. The dialyzed protein was mixed with 2 μl of 300× Sypro® Orange protein gel stain (Sigma) and 100 mM of different buffers ranging from pH 5.0 to pH 9.0. Thermal shifts were screened for by heating in an iCycler iQ Real Time PCR Detection System (Bio-Rad Laboratories) from 1 to 80° C. in increments of 1° C./min. […]

[3] = Temperature shift experiment on production yield of Neu5Ac; format: biochemical; settings: shifting reaction temperature from 23° C. to 4° C.; 50 mM pyruvate, 5 mM ManNAc
Method: The effect of substrate ratio on the conversion yield of Neu5Ac was studied by varying the pyruvate concentration while the concentration of ManNAc was kept constant. The pyruvate concentration ranged from 2.5 to 70 mM, whereas the ManNAc concentration was 5 mM, resulting in a pyruvate:ManNAc ratio ranging from 0.5 to 14. The condensation reaction mixture containing different ratios of pyruvate and ManNAc along with 124 mM HEPES buffer pH 8.0 and enzyme was incubated at room temperature for 7.5 h. […] Thus, a temperature shift experiment was carried out to see how much the Neu5Ac production could be increased by altering the equilibrium once it had been achieved. For a temperature shift experiment, the reaction mixture (enzyme, 50 mM pyruvate, 5 mM ManNAc, 124 mM HEPES buffer pH 8.0) was incubated at room temperature for 7.5 h and after reaching equilibrium it was shifted to 4° C. and incubated for 15 h. As a control, one reaction was kept at room temperature and another at 4° C. for all the time. The difference in yield between the temperature shifted and non-shifted reactions were calculated. The standard TBA assay was used to assess the activity.

[4] = Comparative specific activity, cleavage reaction (TBA assay); format: biochemical
Method: The cleavage activity was determined by incubating 50 μl of a reaction mixture containing 5 mM Neu5Ac, 124 mM HEPES pH 8.0 and different concentrations of enzyme depending on assay type at selected temperatures for the required amount of time. Termination of the reactions and subsequent steps of the assay are as described above. The decrease in absorbance is correlated to the increase in cleavage activity.
Standard reaction mixtures were incubated at room temperature for 1 h before being subjected to the TBA assay.

B1: AsNAL: N-acetylneuraminate lyase isolated from the psychrophilic bacterium Aliivibrio salmonicida LFI1238, recombinantly expressed in E. coli (protein, listed as Aliivibrio salmonicida)
chain: MKKLTGLIAAPHTPFDSSSNVNFEEIDKIAKHLINDGVKGIYVCGTTGEGIHCSVEERKAIAERWVSACNHKLDIIVHTGALSIVDTLELTRHADTLDILATSAIGPCFFKPGSVSDLVEYCATIAAAAPSKGFYYYHSGMSGVNLNMEEFLIQADKRIPNLSGLKFNSGDLYEYQRCLRACDGKFDVPFGVDEFLPGALAVGAKSAVGSTYNYAAPHFNSIIEAFNKGDHDAVFNKMTNVIELIRVLVEFGGVAAGKIAMELHDINAGDPRLPLMPLSAEQKLTVVEKMRAANFLK
For B1, the “optimal temperature, condensation reaction” value ([1]; HEPES buffer pH 8.0, 30 min) was 20 °C, the condensation activity retained ([1]; at 10° C., relative to highest value) was 75% and the “melting temperature (thermofluor)” value ([2]; 500 mM NaCl) was 76.9 °C. The “melting temperature (thermofluor)” value ([2]; milli-Q water) was 73.15±0.21 °C, the “increase in yield of Neu5Ac” value [3] was 30% and the “specific activity of the cleavage reaction, higher than EcNAL” value (from here on “specific activity”) ([4]; 4° C.) was 25%. For the same molecule, the “specific activity” value ([4]; 23° C.) was 35% and the “specific activity” value ([4]; 37° C.) was 35%.
